In article PMC5843355, “Evaluation of the Trypanosoma brucei 6-oxopurine salvage pathway as a potential target for drug discovery” (PLoS Neglected Tropical Diseases, 2018):
Changes are numbered by the printed parent chain. Values joined by “and” are separate entries in the source; they are usually repeats but may differ in a detail not shown here. Equal entries are not always repeated.

Experiments:
[1] = substrate: Nc1nc2nc[nH]c2c(=O)[nH]1; assay: purified protein, by the assay type; conditions: PRib-PP 1 mM, pH 8.4, 25°C
[2] = substrate: O=c1[nH]c(=O)c2[nH]cnc2[nH]1; assay: purified protein, by the assay type; conditions: other: HGXPRT, PRib-PP 1 mM, pH 8.4, 25°C
[3] = substrate: O=c1[nH]cnc2nc[nH]c12; assay: purified protein, by the assay type; conditions: PRib-PP 1 mM, pH 8.4, 25°C
[4] = substrate: Nc1nc2nc[nH]c2c(=O)[nH]1; assay: Steady-state kinetic constants of 6-oxopurine bases for HGPRT-I; assay type: biochemical, Trypanosoma brucei; conditions: other: HGPRT-I, PRib-PP 1 mM, pH 8.4, 25°C
Description: The concentration of enzyme in the assay (varied from 75–200 μg/ml for the two enzymes) and the concentration of PRib-PP was kept at 1 mM. The reaction was carried out using a 1.0 cm path length with a UV Visible spectrometer 1601 (Shimadzu) in the reaction buffer (0.1 M Tris, pH 8.4; 0.11 M MgCl2; at 25°C).

B1: HGXPRT (Trypanosoma brucei brucei TREU927) (protein)
chain: HSGHPLKPNFVGRDADGNVTVDGRSYPMAESVVATESTIHRSMKEMAQTLANAYKTLKHRDTHNKGNSALAPITDENPLIIISVLKGSYIFTADMVRYLGDCGLPNVVDFIRITSYRGTTKSSGTVQVLDNLRFTELTGKHVLIMEDIADTGRTMKLLVEKIRREYRPASLKVCVLVDKPGGRVVDFKPEFVCLTAPTRYVVGYGFEVNDRYRNYRHVFVLKPEYAKRYPSKL
Protein B1 has a Km ([1]; other: HGXPRT) of 32 ± 4.8 µM, a Km [2] of 31.9 ± 7.5 µM and a kcat [2] of 3.66 s⁻¹. It also gave a kcat/Km [2] of 110000 M⁻¹ s⁻¹, a Km ([3]; other: HGXPRT) of 30.6 ± 7.8 µM and a kcat ([3]; other: HGXPRT) of 2.4 s⁻¹. The kcat/Km ([3]; other: HGXPRT) was 80000 M⁻¹ s⁻¹.

B2: HGPRT-I (Trypanosoma brucei brucei) (protein)
chain: EPACKYDFATSVLFTEAELHTRMRGVAQRIADDYSNCNLKPLENPLVIVSVLKGSFVFTADMVRILGDFGVPTRVEFLRASSYGHDTKSCGRVDVKADGLCDIRGKHVLVLEDILDTALTLREVVDSLKKSEPASIKTLVAIDKPGGRKIPFTAEYVVADVPNVFVVGYGLDYDQSYREVRDVVILKPSVYETWGKELERRKAAGEAKR
notes: 6x His-tag (N); AcTEV cleavage site (N); made in house; host or cells: E. coli One Shot BL21(DE3)
In the case of B2, the Km [4] is reported as 16 µM and 15.9 ± 4.8 µM, the kcat [4] is reported as 0.38 s⁻¹ and the kcat/Km [4] is reported as 20000 M⁻¹ s⁻¹. For the same protein, the Km ([3]; other: HGPRT-I) was 13.7 ± 2.9 µM.

B3: HGPRT-II (Trypanosoma brucei brucei TREU927) (protein)
chain: B2 chain with I48V, K53R, G205V, E206K, R209L
B3 showed a Km ([1]; other: HGPRT-II) of 7.1 ± 1.8 µM, a Km ([3]; other: HGPRT-II) of 4.2 ± 0.9 µM and a kcat ([3]; other: HGPRT-II) of 0.03 s⁻¹. The kcat/Km ([3]; other: HGPRT-II) was 7000 M⁻¹ s⁻¹.
